According to patent publication US9872887B2, “Extracellular matrix-binding synthetic peptidoglycans” (Purdue Research Foundation, priority 2013, dated 2018):

Test: Rheological measurements on bovine vitreous
Settings: trypsin treated vs no treatment and PBS buffer; FIG. 3A
Source text: The synthetic peptidoglycans according to the present disclosure can be tested as follows. Viscoelastic properties can be measured using a rheometer, for example the TAInstruments ARG2 rheometer. A cone and plate geometry or a parallel plate geometry can be used. Vitreous humor (e.g., bovine) can be placed within the geometry. The temperature can be controlled and frequency sweeps can be performed from ranges of about 0.1 Hz to about 100 Hz (e.g., 1 Hz) and storage, loss, and complex modulus can be measured at an oscillatory shear stress between about 0.1 Pa and about 10 Pa (e.g., 10 Pa). Temperature: 37° C.

trypsin
viscosity of bovine vitreous: lower viscosity
